Measurements published in patent publication US20250122306A1 (SUTRO BIOPHARMA, published 2025).
Where a chain is given by its changes, count along the chain named.

B1: SRP2900-A08 (antibody, IgG1, V domains shown)
VH: EVQLVESGGGLVQPGGSLRLSCAASGFTLTGYWIHWVRQAPGKGLEWVGYIDPYNGATYYADSVKGRFTISADTSKNTAYLQMNSLRAEDTAVYYCARADYYYVDEYWDYWGQGTLVTVSS
VL: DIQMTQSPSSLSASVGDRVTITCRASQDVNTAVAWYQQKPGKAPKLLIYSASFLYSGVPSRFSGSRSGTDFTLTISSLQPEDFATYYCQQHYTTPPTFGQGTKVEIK
B2: SRP2900-B01 (antibody, IgG1, V domains shown)
VH: B1 VH with L29I, T30S, W108L
VL: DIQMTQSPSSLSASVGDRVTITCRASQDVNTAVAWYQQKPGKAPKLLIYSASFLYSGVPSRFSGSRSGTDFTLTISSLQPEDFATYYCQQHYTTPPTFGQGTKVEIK
B3: SRP2900-B08 (antibody, IgG1, V domains shown)
VH: B1 VH with L29I, T30P, G31S, A57Y, W108F
VL: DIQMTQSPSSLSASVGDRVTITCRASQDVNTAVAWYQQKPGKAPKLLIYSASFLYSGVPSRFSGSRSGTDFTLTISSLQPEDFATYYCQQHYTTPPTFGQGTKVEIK
B4: SRP2900-C07 (antibody, IgG1, V domains shown)
VH: B1 VH with L29I, T30S, W108F
VL: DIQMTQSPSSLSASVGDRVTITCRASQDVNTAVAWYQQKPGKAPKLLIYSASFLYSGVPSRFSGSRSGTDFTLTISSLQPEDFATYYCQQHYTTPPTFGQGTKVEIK
B5: SRP2900-B11 (antibody, IgG1, V domains shown)
VH: B1 VH with L29I, T30P, G31A, Y54S, A57Y, T74A, V93A, Y102H, Y103G
VL: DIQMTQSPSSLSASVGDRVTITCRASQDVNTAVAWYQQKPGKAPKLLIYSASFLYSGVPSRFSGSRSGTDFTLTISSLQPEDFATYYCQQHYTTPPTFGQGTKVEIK
B6: SRP2900-A01 (antibody, IgG1, V domains shown)
VH: B1 VH with L29I, T30S, G31S, E46K, W108F
VL: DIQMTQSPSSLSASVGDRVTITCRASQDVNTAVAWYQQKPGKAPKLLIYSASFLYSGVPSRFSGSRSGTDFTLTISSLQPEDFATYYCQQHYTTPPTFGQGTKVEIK
B7: SRP2900-B05 (antibody, IgG1, V domains shown)
VH: B1 VH with L29I, T30S, Y103G, Y107F, W108L
VL: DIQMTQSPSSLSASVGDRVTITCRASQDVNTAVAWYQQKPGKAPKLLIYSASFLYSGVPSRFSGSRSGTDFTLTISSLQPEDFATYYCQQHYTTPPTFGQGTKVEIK
B8: SRP2900-E04 (antibody, IgG1, V domains shown)
VH: B1 VH with L29I, T30P, G31D, N55S, A57S, Y59F, W108L
VL: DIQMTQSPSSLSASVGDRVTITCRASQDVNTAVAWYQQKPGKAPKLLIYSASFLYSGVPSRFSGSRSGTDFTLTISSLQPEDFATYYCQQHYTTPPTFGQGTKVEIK
B9: SRP2900-B09 (antibody, IgG1, V domains shown)
VH: B1 VH with L29I, T30S, G31Q, Y50F, A57Y, Y59N, K76E
VL: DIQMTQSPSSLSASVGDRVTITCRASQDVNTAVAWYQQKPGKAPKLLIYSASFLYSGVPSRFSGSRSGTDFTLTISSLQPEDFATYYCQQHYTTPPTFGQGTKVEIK
B10: SRP2900-B03 (antibody, IgG1, V domains shown)
VH: B1 VH with A23S, L29I, T30A, G31D
VL: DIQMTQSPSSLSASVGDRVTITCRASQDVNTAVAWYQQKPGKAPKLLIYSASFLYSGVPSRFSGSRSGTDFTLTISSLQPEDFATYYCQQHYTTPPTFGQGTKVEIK
B11: SRP2900-A09 (antibody, IgG1, V domains shown)
VH: B1 VH with L29I, T30A, G31D
VL: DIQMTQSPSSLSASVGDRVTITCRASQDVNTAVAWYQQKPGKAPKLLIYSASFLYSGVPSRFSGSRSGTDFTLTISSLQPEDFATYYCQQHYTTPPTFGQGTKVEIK
B12: SRP2900-C05 (antibody, IgG1, V domains shown)
VH: B1 VH with L29I, T30S, S75P, Y102H, Y103G
VL: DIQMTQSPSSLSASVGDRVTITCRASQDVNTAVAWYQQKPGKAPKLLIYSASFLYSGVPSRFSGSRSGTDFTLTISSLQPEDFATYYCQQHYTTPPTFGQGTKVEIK
B13: SRP2900-C02 (antibody, IgG1, V domains shown)
VH: B1 VH with L29I, T30S, G31S
VL: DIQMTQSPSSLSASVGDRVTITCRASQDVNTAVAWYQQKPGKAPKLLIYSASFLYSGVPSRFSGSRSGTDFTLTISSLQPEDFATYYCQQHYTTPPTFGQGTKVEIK
B14: SRP2900-B06 (antibody, IgG1, V domains shown)
VH: B1 VH with L29I, T30P, G31S, Y102H, Y103G
VL: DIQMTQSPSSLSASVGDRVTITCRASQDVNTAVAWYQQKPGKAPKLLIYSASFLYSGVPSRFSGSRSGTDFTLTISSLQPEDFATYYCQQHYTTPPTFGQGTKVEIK
B15: SRP2900-B07 (antibody, IgG1, V domains shown)
VH: B1 VH with L29I, T30A, G31D, Y50F, A57Y, Y59G, T74N, Y102H, Y103G
VL: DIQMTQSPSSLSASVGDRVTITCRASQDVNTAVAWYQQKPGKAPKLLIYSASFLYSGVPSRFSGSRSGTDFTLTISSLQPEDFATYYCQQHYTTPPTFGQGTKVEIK
B16: SRP2900-B10 (antibody, IgG1, V domains shown)
VH: B1 VH with L29I, T30P, G31A, A57S
VL: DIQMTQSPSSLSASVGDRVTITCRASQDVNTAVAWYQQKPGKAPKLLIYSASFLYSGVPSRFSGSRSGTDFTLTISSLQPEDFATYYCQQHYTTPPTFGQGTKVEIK
B17: SRP2900-A03 (antibody, IgG1, V domains shown)
VH: B1 VH with L29I, T30P, G31S, Y54A, Y102F, W108L
VL: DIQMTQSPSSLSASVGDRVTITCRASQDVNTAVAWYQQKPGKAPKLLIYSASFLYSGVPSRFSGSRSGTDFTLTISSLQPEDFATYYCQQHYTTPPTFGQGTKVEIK
B18: SRP2900-C04 (antibody, IgG1, V domains shown)
VH: B1 VH with L29I, T30V, G31S
VL: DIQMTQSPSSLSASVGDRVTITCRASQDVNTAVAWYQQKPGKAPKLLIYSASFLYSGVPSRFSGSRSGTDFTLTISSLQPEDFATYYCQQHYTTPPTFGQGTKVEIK
B19: SRP2900-B02 (antibody, IgG1, V domains shown)
VH: B1 VH with L11S, L29I, T30S, G31D
VL: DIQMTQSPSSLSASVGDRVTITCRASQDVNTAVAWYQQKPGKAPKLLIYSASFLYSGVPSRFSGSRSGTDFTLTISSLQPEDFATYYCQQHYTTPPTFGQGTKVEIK
B20: SRP2900-B04 (antibody, IgG1, V domains shown)
VH: B1 VH with L29I, T30S, G31E, Y50F, A57Y, Y59G, K65R
VL: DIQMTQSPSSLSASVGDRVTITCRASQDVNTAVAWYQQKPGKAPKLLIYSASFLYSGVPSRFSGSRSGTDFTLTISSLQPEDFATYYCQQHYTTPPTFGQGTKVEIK
B21: SRP2900-C10 (antibody, IgG1, V domains shown)
VH: EVQLVESGGGLVQPGGSLRLSCAASGFTISDYWIHWVRQAPGKGLEWVGYIDPYNGYTYYADSVNGRFTISADTSKNTAYLQMNSLRAEDTAVYYCARDYGSYLVSLDYWGQGTLVTVSS
VL: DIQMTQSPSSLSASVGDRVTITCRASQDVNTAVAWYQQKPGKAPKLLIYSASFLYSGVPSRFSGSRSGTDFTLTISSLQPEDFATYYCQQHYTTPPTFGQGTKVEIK
B22: SRP2900-D09 (antibody, IgG1, V domains shown)
VH: B21 VH with D31G, Y54A, Y57F, N65K, Y103I, L104Q, S106F
VL: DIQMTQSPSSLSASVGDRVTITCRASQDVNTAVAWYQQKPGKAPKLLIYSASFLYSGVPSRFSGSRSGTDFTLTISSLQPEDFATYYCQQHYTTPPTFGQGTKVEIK
B23: SRP2900-D05 (antibody, IgG1, V domains shown)
VH: B21 VH with T28A, S30A, D31N, N65K, Y103L, L104E
VL: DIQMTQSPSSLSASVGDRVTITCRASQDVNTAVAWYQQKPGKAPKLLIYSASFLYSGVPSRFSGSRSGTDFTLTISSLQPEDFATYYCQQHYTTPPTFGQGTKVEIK
B24: SRP2900-E09 (antibody, IgG1, V domains shown)
VH: B21 VH with D31Q, N65K, Y80H, Y103F, L104R, S106Q
VL: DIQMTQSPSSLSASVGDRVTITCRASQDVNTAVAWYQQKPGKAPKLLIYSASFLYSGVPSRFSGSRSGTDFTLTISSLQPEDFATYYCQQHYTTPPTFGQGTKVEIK
B25: SRP2900-E05 (antibody, IgG1, V domains shown)
VH: B21 VH with D31G, Y54A, Y57F, N65K, Y103V, L104R, S106F
VL: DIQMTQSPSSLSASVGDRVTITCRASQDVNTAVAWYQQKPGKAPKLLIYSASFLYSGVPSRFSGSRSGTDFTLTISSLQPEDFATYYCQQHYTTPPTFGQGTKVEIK
B26: SRP2900-D11 (antibody, IgG1, V domains shown)
VH: B21 VH with N65K, S85P, Y103L, L104Q, S106Q
VL: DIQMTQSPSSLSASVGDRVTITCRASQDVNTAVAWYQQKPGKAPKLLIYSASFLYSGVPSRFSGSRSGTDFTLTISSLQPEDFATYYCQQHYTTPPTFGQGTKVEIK
B27: SRP2900-E03 (antibody, IgG1, V domains shown)
VH: B21 VH with Y54Q, Y57W, N65K, Y103L, L104E
VL: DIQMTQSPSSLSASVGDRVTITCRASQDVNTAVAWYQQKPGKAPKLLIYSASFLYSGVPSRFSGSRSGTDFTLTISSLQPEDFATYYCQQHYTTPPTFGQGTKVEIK
B28: SRP2900-D03 (antibody, IgG1, V domains shown)
VH: B21 VH with D31Q, N65K, Y103L, L104Q, S106Q
VL: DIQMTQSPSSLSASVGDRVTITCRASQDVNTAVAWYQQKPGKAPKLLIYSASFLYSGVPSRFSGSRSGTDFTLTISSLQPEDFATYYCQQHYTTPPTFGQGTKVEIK
B29: SRP2900-D04 (antibody, IgG1, V domains shown)
VH: B21 VH with Y50F, Y60H, N65E, Y103L, L104Q, S106Q
VL: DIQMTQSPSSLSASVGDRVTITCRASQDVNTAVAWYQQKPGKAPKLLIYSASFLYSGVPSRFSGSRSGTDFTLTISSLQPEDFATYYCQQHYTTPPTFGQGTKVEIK
B30: SRP2900-F04 (antibody, IgG1, V domains shown)
VH: B21 VH with Y57F, N65K, Y103L, L104Q, S106F, L107I
VL: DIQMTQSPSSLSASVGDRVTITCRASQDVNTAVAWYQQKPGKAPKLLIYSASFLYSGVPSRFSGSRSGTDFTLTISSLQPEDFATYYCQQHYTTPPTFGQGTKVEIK
B31: SRP2900-D02 (antibody, IgG1, V domains shown)
VH: B21 VH with N65K, Y103L, L104Q, S106F, L107I, Y109H
VL: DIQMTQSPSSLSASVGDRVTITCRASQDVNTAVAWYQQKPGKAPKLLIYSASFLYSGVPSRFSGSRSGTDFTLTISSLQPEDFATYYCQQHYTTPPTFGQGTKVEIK
B32: SRP2900-D01 (antibody, IgG1, V domains shown)
VH: B21 VH with S30H, D31E, Y54A, Y57F, N65K, Y103L, L104Q, S106F
VL: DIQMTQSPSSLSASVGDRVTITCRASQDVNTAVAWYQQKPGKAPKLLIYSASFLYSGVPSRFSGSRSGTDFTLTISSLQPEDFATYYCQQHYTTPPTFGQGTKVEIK
B33: SRP2900-D10 (antibody, IgG1, V domains shown)
VH: B21 VH with Y50F, Y54K, N65K, D73G, Y103L, L104Q, S106F, L107I
VL: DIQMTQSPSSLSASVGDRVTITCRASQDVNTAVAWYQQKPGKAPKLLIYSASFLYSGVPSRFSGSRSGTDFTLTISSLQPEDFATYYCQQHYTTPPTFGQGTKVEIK
B34: SRP2900-A11 (antibody, IgG1, V domains shown)
VH: EVQLVESGGGLVQPGGSLRLSCAASGFTITDYVIHWVRQAPGKGLEWVGYIDPSNGYTYYADSVKGRFTISADTSKNTAYLQMNSLRAEDTAVYYCARDDQSFTSPFDYWGQGTLVTVSS
VL: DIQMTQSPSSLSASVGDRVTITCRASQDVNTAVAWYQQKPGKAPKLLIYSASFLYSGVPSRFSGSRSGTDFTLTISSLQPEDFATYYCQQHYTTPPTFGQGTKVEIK
B35: SRP2900-F10 (antibody, IgG1, V domains shown)
VH: B34 VH with T30S, D100P, F103L, T104F, S105Y
VL: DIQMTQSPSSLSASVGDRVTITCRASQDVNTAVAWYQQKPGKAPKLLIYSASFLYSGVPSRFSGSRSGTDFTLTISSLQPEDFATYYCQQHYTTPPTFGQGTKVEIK
B36: SRP2900-F05 (antibody, IgG1, V domains shown)
VH: B34 VH with T30N, F103L, T104S
VL: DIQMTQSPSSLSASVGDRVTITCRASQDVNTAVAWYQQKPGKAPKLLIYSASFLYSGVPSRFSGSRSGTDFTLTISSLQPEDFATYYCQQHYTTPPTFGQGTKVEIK
B37: SRP2900-D06 (antibody, IgG1, V domains shown)
VH: B21 VH with Y54Q, Y57W, N65K, Y103L, L104T, V105I, S106N
VL: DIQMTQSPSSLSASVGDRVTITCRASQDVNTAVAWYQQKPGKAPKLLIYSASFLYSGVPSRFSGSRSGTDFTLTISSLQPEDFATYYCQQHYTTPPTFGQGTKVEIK
B38: SRP2900-D07 (antibody, IgG1, V domains shown)
VH: B21 VH with Y54S, N65K, K76R, Y103L, L104E
VL: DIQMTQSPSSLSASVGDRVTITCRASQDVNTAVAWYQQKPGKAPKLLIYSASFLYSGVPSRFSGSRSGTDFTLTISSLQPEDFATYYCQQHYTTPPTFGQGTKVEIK
B39: SRP2900-D08 (antibody, IgG1, V domains shown)
VH: B21 VH with N65K, Y103L, L104E
VL: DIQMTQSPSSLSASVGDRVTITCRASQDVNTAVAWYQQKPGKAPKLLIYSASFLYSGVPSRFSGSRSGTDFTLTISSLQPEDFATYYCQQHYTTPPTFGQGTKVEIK
B40: SRP2900-E08 (antibody, IgG1, V domains shown)
VH: B21 VH with S30T, N65K, Y103L, L104Q, S106F, L107I
VL: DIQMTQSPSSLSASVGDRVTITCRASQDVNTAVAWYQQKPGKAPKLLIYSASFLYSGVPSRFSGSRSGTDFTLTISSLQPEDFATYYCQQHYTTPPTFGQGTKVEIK
B41: SRP2900-G01 (antibody, IgG1, V domains shown)
VH: B34 VH with T30F, V33T, Y59F, M83V, D100I, F103V, T104S, S105G, P106E
VL: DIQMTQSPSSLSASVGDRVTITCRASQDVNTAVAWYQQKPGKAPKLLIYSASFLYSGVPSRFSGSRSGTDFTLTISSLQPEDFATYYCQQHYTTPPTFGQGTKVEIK
B42: SRP2900-E01 (antibody, IgG1, V domains shown)
VH: B21 VH with Y54S, N65K, Y103L, L104Q, S106F, L107I
VL: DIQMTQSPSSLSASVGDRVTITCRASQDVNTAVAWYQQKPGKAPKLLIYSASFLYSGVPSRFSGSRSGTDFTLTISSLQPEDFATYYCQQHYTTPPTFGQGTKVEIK
B43: SRP2900-F07 (antibody, IgG1, V domains shown)
VH: B34 VH with T30S, V33T, Y60H, D100P, F103V, T104S
VL: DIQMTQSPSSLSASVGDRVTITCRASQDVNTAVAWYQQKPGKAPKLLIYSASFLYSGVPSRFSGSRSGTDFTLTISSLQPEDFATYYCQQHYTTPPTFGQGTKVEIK
B44: SRP2900-G04 (antibody, IgG1, V domains shown)
VH: B34 VH with I29T, T30R, D100P, F103L, T104S
VL: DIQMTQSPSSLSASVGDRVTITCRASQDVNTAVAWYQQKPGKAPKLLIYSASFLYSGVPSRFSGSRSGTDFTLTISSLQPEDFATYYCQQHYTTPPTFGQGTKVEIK
B45: SRP2900-E11 (antibody, IgG1, V domains shown)
VH: B34 VH with T30S, D31Y, V33I, D100V, F103V, T104S, S105G, P106E
VL: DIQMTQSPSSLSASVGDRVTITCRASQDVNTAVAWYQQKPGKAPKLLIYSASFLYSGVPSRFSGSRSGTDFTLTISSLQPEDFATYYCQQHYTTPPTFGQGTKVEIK
B46: SRP2900-E10 (antibody, IgG1, V domains shown)
VH: B21 VH with Y54A, N65K, Y103L, L104H, S106Q
VL: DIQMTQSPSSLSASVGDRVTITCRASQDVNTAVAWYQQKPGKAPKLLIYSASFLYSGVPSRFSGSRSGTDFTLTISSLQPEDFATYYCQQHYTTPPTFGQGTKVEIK

These binders were tested against tissue factor reagent of the Tissue Factor Activity Assay Kit (Abcam #ab108906) (UniProt P13726 33-295, limits assumed) (assay: cell-based or functional assay).
Chain of tissue factor reagent of the Tissue Factor Activity Assay Kit (Abcam #ab108906) (P13726 33-295 limits assumed): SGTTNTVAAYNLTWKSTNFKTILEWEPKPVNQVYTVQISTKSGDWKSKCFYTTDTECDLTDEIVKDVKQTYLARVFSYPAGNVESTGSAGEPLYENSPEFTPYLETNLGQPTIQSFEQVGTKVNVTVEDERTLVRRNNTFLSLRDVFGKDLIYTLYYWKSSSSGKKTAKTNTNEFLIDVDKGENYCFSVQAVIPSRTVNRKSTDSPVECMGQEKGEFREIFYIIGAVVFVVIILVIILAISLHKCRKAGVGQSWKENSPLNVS

Binder | FX conversion (% inhibition), 1000 nM antibody
B1 | 41.9%
B2 | 38.7%
B3 | 43.3%
B4 | 41.6%
B5 | 22.4%
B6 | 37%
B7 | 35.5%
B8 | 25.9%
B9 | 35%
B10 | 44.1%
B11 | 46.9%
B12 | 35.7%
B13 | 29.6%
B14 | 28.2%
B15 | 42.2%
B16 | 33.3%
B17 | 26.3%
B18 | 36.7%
B19 | 27%
B20 | 46.3%
B21 | 42.1%
B22 | 30%
B23 | 33.6%

Binder | FX conversion (% inhibition), 1000 nM antibody
B24 | 32.2%
B25 | 23.5%
B26 | 51.4%
B27 | 48.7%
B28 | 37.4%
B29 | 46%
B30 | 47.3%
B31 | 32.1%
B32 | 32.7%
B33 | 37%
B34 | 31.7%
B35 | 32.5%
B36 | 25.1%
B37 | 46.2%
B38 | 47.4%
B39 | 44.9%
B40 | 45.8%
B41 | 25.1%
B42 | 40.4%
B43 | 30.3%
B44 | 31.2%
B45 | 39.9%
B46 | 50.7%
